Reference: patent US20150368338A1 (Janssen / Centocor, published 2015)

T1: IFN-αF (human, UniProt P01568 24-189)
T1 construct: Recombinant, HEK293; also called IFN-α21
T1 chain: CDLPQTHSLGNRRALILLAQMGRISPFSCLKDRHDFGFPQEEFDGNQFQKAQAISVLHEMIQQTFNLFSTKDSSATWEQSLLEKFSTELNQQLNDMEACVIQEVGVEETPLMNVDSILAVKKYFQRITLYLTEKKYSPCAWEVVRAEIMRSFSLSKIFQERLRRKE

T2: IFN-αF (human, UniProt P01568 24-189)
T2 construct: also called IFN-α21; alpha F
T2 chain: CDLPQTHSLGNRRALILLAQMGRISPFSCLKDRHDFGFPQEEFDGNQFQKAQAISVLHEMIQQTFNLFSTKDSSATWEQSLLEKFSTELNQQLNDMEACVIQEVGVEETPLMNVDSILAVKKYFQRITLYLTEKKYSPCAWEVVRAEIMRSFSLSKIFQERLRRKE


Legend:
[1] = biological target: T1, IFN-αF; experiment: ProteOn SPR, cell supernatant;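 note: each binding measurement used just a single antigen concentration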
[2] = biological target: T3, IFN-αC (human, UniProt P01566 24-189); experiment: ProteOn SPR, cell supernatant;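 note: each binding measurement used just a single antigen concentration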
T3 construct: Recombinant, HEK293; also called IFN-α10

[3] = biological target: T4, human IFN-ω (human, UniProt P05000 24-195); experiment: ProteOn SPR, cell supernatant;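 note: each binding measurement used just a single antigen concentration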
T4 construct: Recombinant, HEK293; also called interferon omega

[4] = biological target: T5, IFN-α4a (human, UniProt P05014 24-189); experiment: ProteOn SPR, cell supernatant;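 note: each binding measurement used just a single antigen concentration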
T5 construct: Recombinant, HEK293; also called IFN-αM1

[5] = biological target: T6, IFN-αG (human, UniProt P01569 24-189); experiment: ProteOn SPR, cell supernatant;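 note: each binding measurement used just a single antigen concentration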
T6 construct: Recombinant, HEK293; also called IFN-α5

[6] = biological target: T7, IFN-αWA (human, UniProt P05015 24-189); experiment: ProteOn SPR, cell supernatant;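 note: each binding measurement used just a single antigen concentration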
T7 construct: Recombinant, HEK293; also called IFN-α16

[7] = biological target: T8, IFN-αJ1 (human, UniProt P01567 24-189); experiment: ProteOn SPR, cell supernatant
T8 construct: Recombinant, HEK293; also called IFN-α7

[8] = biological target: T2, IFN-αF; experiment: ProteOn, one antigen concentration
[9] = biological target: T9, IFN-αC (human, UniProt P01566 24-189); experiment: ProteOn, one antigen concentration
T9 construct: also called IFN-α10; alpha C

[10] = biological target: T10, IFN-αJ1 (human, UniProt P01567 24-189); experiment: ProteOn, one antigen concentration
T10 construct: also called IFN-α7; alpha J1

[11] = biological target: T11, IFN-α4a (human, UniProt P05014 24-189); experiment: ProteOn, one antigen concentration
T11 construct: also called IFN-αM1

[12] = biological target: T12, IFN-αWA (human, UniProt P05015 24-189); experiment: ProteOn, one antigen concentration
T12 construct: also called IFN-α16; alpha WA

[13] = biological target: T13, human IFN-ω (human, UniProt P05000 24-195); experiment: ProteOn, one antigen concentration
T13 construct: also called interferon omega

[14] = biological target: T14, IFN-αG (human, UniProt P01569 24-189); experiment: ProteOn, one antigen concentration
T14 construct: also called IFN-α5; alpha G

Kd [1] [nM] | Kd [2] [nM] | Kd [3] [nM] | Kd [4] [nM] | Kd [5] [nM] | Kd [6] [nM] | Kd [7] [nM] | Kd [8] [nM] | Kd [9] [nM] | Kd [10] [nM] | Kd [11] [nM] | Kd [12] [nM] | Kd [13] [nM] | Kd [14] [nM] | Binder
0.013 | 0.013 | 0.015 | 0.072 | 0.013 | 0.023 | 0.033 |  |  |  |  |  |  |  | IFWM3379 (antibody, IgG1, V domains shown, mAb; IgG1/kappa said of the parent and of selected mAbs; also called IFWB3114) VH: EVQLVQSGAEVKKPGESLKISCKGSGYSFTSYWIGWVRQMPGKGLEWMGIIDPSDSDTRYSPSFQGQVTISADKSISTAYLQWSSLKASDTAMYYCARHPGLAWAPDFDYWGQGTLVTVSS VL: DIQMTQSPSSLSASVGDRVTITCRASQSIDGSLNWYQQKPGKAPKLLIYFASSLQSGVPSRFSGSGSGTDFTLTISSLQPEDFATYYCQQSYDFPLTFGQGTKVEIK
 |  |  |  |  |  |  | 0.091 | 0.099 | 0.36 | 0.41 | 0.207 | 0.108 | 0.072 | IFWM3328 (antibody, V domains shown, VH IFWH591, VL IFWL1064; converted mAb; also called IFWB3063) VH: EVQLVQSGAEVKKPGESLKISCKGSGYSFTSYWIGWVRQMPGKGLEWMGIIDPSDSDTRYSPSFQGQVTISADKSISTAYLQWSSLKASDTAMYYCARHPGLNWAPDFDYWGQGTLVTVSS VL: DIQMTQSPSSLSASVGDRVTITCRASQSINNLNWYQQKPGKAPKLLIYWASSLQSGVPSRFSGSGSGTDFTLTISSLQPEDFATYYCQQGYDTPFTFGQGTKVEIK
0.092 | 0.079 | 0.045 | 0.171 | 0.053 | 0.067 | 0.121 |  |  |  |  |  |  |  | IFWM3381 (antibody, IgG1, V domains shown, mAb; IgG1/kappa said of the parent and of selected mAbs; also called IFWB3116) VH: EVQLVQSGAEVKKPGESLKISCKGSGYSFTSYWIGWVRQMPGKGLEWMGIIDPSDSDTRYSPSFQGQVTISADKSISTAYLQWSSLKASDTAMYYCARHPGLAWAPDFDYWGQGTLVTVSS VL: DIQMTQSPSSLSASVGDRVTITCRASQSIGSFLNWYQQKPGKAPKLLIYFASSLQSGVPSRFSGSGSGTDFTLTISSLQPEDFATYYCQQSYSIPITFGQGTKVEIK
 |  |  |  |  |  |  | 0.016 | 0.017 | 0.071 | 0.091 | 0.037 | 0.02 | 0.034 | IFWM3337 (antibody, V domains shown, VH IFWH591, VL IFWL1087; converted mAb; also called IFWB3072) VH: EVQLVQSGAEVKKPGESLKISCKGSGYSFTSYWIGWVRQMPGKGLEWMGIIDPSDSDTRYSPSFQGQVTISADKSISTAYLQWSSLKASDTAMYYCARHPGLNWAPDFDYWGQGTLVTVSS VL: DIQMTQSPSSLSASVGDRVTITCRASQSISNSNLNWYQQKPGKAPKLLIHWASSLQSGVPSRFSGSGSGTDFTLTISSLQPEDFATYYCQQWYDHPLTFGQGTKVEIK
 |  |  |  |  |  |  | 0.061 | 0.047 | 0.11 | 0.235 | 0.105 | 0.019 | 0.051 | IFWM3336 (antibody, V domains shown, VH IFWH591, VL IFWL1085; converted mAb; also called IFWB3071) VH: EVQLVQSGAEVKKPGESLKISCKGSGYSFTSYWIGWVRQMPGKGLEWMGIIDPSDSDTRYSPSFQGQVTISADKSISTAYLQWSSLKASDTAMYYCARHPGLNWAPDFDYWGQGTLVTVSS VL: DIQMTQSPSSLSASVGDRVTITCRASQSIRNNYLNWYQQKPGKAPKLLIYAASSLQSGVPSRFSGSGSGTDFTLTISSLQPEDFATYYCQQGYDTPLTFGQGTKVEIK
 |  |  |  |  |  |  | 0.089 | 0.065 | 0.607 | 0.477 | 0.258 | 0.053 | 0.077 | IFWM3333 (antibody, V domains shown, VH IFWH591, VL IFWL1076; converted mAb; also called IFWB3068) VH: EVQLVQSGAEVKKPGESLKISCKGSGYSFTSYWIGWVRQMPGKGLEWMGIIDPSDSDTRYSPSFQGQVTISADKSISTAYLQWSSLKASDTAMYYCARHPGLNWAPDFDYWGQGTLVTVSS VL: DIQMTQSPSSLSASVGDRVTITCRASQSIDNNNLNWYQQKPGKAPKLLIYAASSLQSGVPSRFSGSGSGTDFTLTISSLQPEDFATYYCQQGYDWPLTFGQGTKVEIK
 |  |  |  |  |  |  | 0.061 | 0.049 | 0.245 | 0.336 | 0.137 | 0.042 | 0.077 | IFWM3335 (antibody, V domains shown, VH IFWH591, VL IFWL1084; converted mAb; also called IFWB3070) VH: EVQLVQSGAEVKKPGESLKISCKGSGYSFTSYWIGWVRQMPGKGLEWMGIIDPSDSDTRYSPSFQGQVTISADKSISTAYLQWSSLKASDTAMYYCARHPGLNWAPDFDYWGQGTLVTVSS VL: DIQMTQSPSSLSASVGDRVTITCRASQSINYLNWYQQKPGKAPKLLIYGASSLQSGVPSRFSGSGSGTDFTLTISSLQPEDFATYYCQQSHDWPITFGQGTKVEIK
